Experimental data taken from patent US20020168372A1 (published 2002).

Target: the molecule itself
Experiment: self-assembly; CsCl gradient and TEM

Row | Protein | binding result
1 | HPV16 L1 protein of clone P114/16/11 (114/K) (other, Differs from prototype L1 only by His202Asp; Expressed in Sf-9 insect cells; self-assembles into VLP; also called 114K-L1; 114/K-L1) MSLWLPSEATVYLPPVPVSKVVSTDEYVARTNIYYHAGTSRLLAVGHPYFPIKKPNNNKILVPKVSGLQYRVFRIHLPDPNKFGFPDTSFYNPDTQRLVWACVGVEVGRGQPLGVGISGHPLLNKLDDTENASAYAANAGVDNRECISMDYKQTQLCLIGCKPPIGEHWGKGSPCTNVAVNPGDCPPLELINTVIQDGDMVDTGFGAMDFTTLQANKSEVPLDICTSICKYPDYIKMVSEPYGDSLFFYLRREQMFVRHLFNRAGTVGENVPDDLYIKGSGSTANLASSNYFPTPSGSMVTSDAQIFNKPYWLQRAQGHNNGICWGNQLFVTVVDTTRSTNMSLCAAISTSETTYKNTNFKEYLRHGEEYDLQFIFQLCKITLTADVMTYIHSMNSTILEDWNFGLQPPPGGTLEDTYRFVTSQAIACQKHTPPAPKEDPLKKYTFWEVNLKEKFSADLDQFPLGRKFLLQAGLKAKPKFTLGKRKATPTTSSTSTTAKRKKRKL | binds
2 | HPV16 L1 protein of clone P114/16/2 (114/B) (other, Differs from prototype L1 by Val194Ile, His202Asp and Thr266Ala; Expressed in Sf-9 insect cells; self-assembles into VLP) MSLWLPSEATVYLPPVPVSKVVSTDEYVARTNIYYHAGTSRLLAVGHPYFPIKKPNNNKILVPKVSGLQYRVFRIHLPDPNKFGFPDTSFYNPDTQRLVWACVGVEVGRGQPLGVGISGHPLLNKLDDTENASAYAANAGVDNRECISMDYKQTQLCLIGCKPPIGEHWGKGSPCTNVAVNPGDCPPLELINTIIQDGDMVDTGFGAMDFTTLQANKSEVPLDICTSICKYPDYIKMVSEPYGDSLFFYLRREQMFVRHLFNRAGAVGENVPDDLYIKGSGSTANLASSNYFPTPSGSMVTSDAQIFNKPYWLQRAQGHNNGICWGNQLFVTVVDTTRSTNMSLCAAISTSETTYKNTNFKEYLRHGEEYDLQFIFQLCKITLTADVMTYIHSMNSTILEDWNFGLQPPPGGTLEDTYRFVTSQAIACQKHTPPAPKEDPLKKYTFWEVNLKEKFSADLDQFPLGRKFLLQAGLKAKPKFTLGKRKATPTTSSTSTTAKRKKRKL | binds
